Assay results taken from the domain aggregation screens of Martell et al. (2025).

test: soluble fraction after stress (log2 fold change); higher = more stays soluble; pooled small domains, quantitative proteomics; settings: stress: 50 degC
Procedure, shortened: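 Quantitative proteomics served as the high-throughput read-out for pooled custom libraries of small protein domains. Each was stressed at 50°C. Aggregation propensity is expressed as the base-two log fold change in soluble protein after stress. A higher value means a larger share of the protein remains in solution.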

Compared with “HMSHLTKKQEEVLLFIRDYYEEEGRSPSYSDIQHHFGLKSKSSVQDYIGYLKKAGFLQKSVGSRAIELV”, “HMDRYAVRAEELAAALAQYHRHVGVYPENLEDLIAPTGPRGYRGPYLSELPTNPSTSKPDWGYDPATGRVS” is higher in “soluble fraction (log2)” value: -2.05 for the first, 0.198 for the second.

Compared with “HMERLLVSKINGMITEAKVSVEDVVKVVASRGHYPEVKSIDEYPDDFLSRWVVPNFKKIVEMINANKEA”, “HMYAMTAEDWIVSGNRKYINDDLQGAIADYTKAIEIDPNYAAIYLVRGKAKYELKNYQGAIEDYTKAIE” is lower in “soluble fraction (log2)” value: 0.187 for the first, -1.13 for the second.

First: HMGSLGSLLKSVRNQRGLSRQQMAQSLNIGVRAIEQIEEGERKPDLELLNRYARGLMDPSVT
Second: HMSGWIATGTATSTGNDVRVRSTPDATVNNNILLTLNKGNRFEIDGQTQNGFYHIKVNDTIGWISGLYVKE
The “soluble fraction (log2)” value of the first is higher: -0.0584 for the first, -0.499 for the second.

Compared with “HMTRAEVQALLEKQAKDFEVEVVHRGWKKTVQTPEFAGWYSQQPAEIKALAESDDPAVAIRMLDLFSGTK”, “HMLENIVFTNKFKNKRLDVLLVDMKLVSSRQKAVSLIMRGNVFVEEERADKPGKIIKLNQTISLKK” is lower in “soluble fraction (log2)” value: -0.0852 for the first, -2.6 for the second.

“HMSLIDYLNELMNEKNITVAQVAKNSGIGEYVYKIFNGERNAKRDTLVAISFGMHLNFEETQLLLRIA” and “HMEFQSIGGKIRIGREREHLTQAELAQKLSVTRQAVSNWERDKTLPDIYMIREIAEIFGLTLDEFMEGAKK” are within 0.2 log units of each other in “soluble fraction (log2)” value: -0.682 for the first, -0.672 for the second.

“HMKTMEQSYIGRKIILDENVEDSALIKFEGIYWTFKSVSGPLKKGTEVEIIGIEGNKILIKNK” and “HMGVGVTAPLAGNIFKIVKQPGDVVASGDVVLILEAMKMETEIRAAAGGTVKQVLVREGDAVDAGHTLMTL” are within 0.2 log units of each other in “soluble fraction (log2)” value: -0.198 for the first, -0.309 for the second.

First: HMQPQLFRVIADDGLNIRSGPGPEYPPVAPMLRKGTQVELLQAGDRWSKVEVVGSTDVEGWVNQRYLQAV
Second: HMQEESISWKEFLELDIIGDKKKRLKVYDLFHLGYGNAKTLFKRLNMVGISREMIEKELENEGY
The “soluble fraction (log2)” value of the first is higher: 0.0476 for the first, -1.32 for the second.

First: HMEKINLLVENNDNYRLDKIIALNMEELSRTQIQEMIGQGLVLVNGKVEKASYKTKLNDQIEITIED
Second: HMERAPAYPDGLTQREVEVLRLIASGKTDREIAEELFIGVRTVSTHVGNILNKTNSANRTEAASYANQQGL
The “soluble fraction (log2)” value of the first is higher: 0.0401 for the first, -0.191 for the second.

“HMEGIAEILPASVRQKYGLIGLYDALRGLHFPGNMEEIKAARQRLAFEDTLMFSLTLSMMQYS” and “HMIVVTSPQVTDERIAEIVAFIEKHGVQAHVSRGTDRTVIGIIGKADPVLAEHLRSMQGVENVIKIS” are within 0.2 log units of each other in “soluble fraction (log2)” value: -0.0198 for the first, -0.0652 for the second.

First: HMKLTKPKLIQLIHIAKSKLNMDELSYRVLLDNLTGKTSTTKMTVGELLKVYESMKDKGFKPQV
Second: HMAPPDFTTFMRNYQDMVYSTAVRLIGNETQAEDIAQEVFIKAHAHFENLRTSPSAGGWLKTVATNLSIN
The “soluble fraction (log2)” value of the first is higher: -0.166 for the first, -0.997 for the second.

Going from “HMEPLVSKVFQVSYQKTADLVALIKSEDSKLLSARGTLISDERTSQIFVQDTPTRLERISMIVNGL” to “HMIFDPTTLPEKQLLVYGIISSHPGLNAKQISEMLTLKKSSIETAIKGLRKKEIIEYEGTTRNGG”, the “soluble fraction (log2)” value rises from -0.883 to -0.182.

Going from “HMSELPLTQKVAIVMVALGEEASGEVMKHLSDYEIEEITQAIAGLKNISVELMDQILEEYEQHLIAG” to “HMNRIEMTEPIIIKDLSRETGIPWVAIQKRLAQDGIMANINTTIEAEKAQLIAVDYGIELAVV”, the “soluble fraction (log2)” value rises from -0.459 to 0.0679.

First: HMEIGNVIAKLRVSNGLNQREFAKKLEVSNGAVAMWETNKRQPDLEMIKKISNLFDVPTDYILGAGTFQ
Second: HMPKIPRLTLTETAGIMGVSQRALALAIQQGMYSWAQALPGRNKKRPIYFINAITFAKAQGIDLEEYK
The “soluble fraction (log2)” value of the first is higher: -0.458 for the first, -1.11 for the second.

Compared with “HMENWMPNLVNQDKRLAINTLRELGFTEEAGNLVIREETSEDVTKDYVISTDPVAETDLADVEKVTLVVSS”, “HMEFDSLINYEVKKKETLFSISKKFKIEINDLLSFNTELKNNKLKKNSIIIIPLKKKIVESQNFEKQKIID” is lower in “soluble fraction (log2)” value: 0.0767 for the first, -1.37 for the second.

Going from “HMEYELYALKEEVLKRLTREDRELLILLFEERRTIHAVAQRLGLSDSAVYKRRTQLVNKVKVIASMLM” to “HMNIFAHQIGKLRTERHLSQTDVAKRLYVSRQAVSKWENGDAEPSLDNLIALAKLFNVSLDNLITGQ”, the “soluble fraction (log2)” value rises from -2.13 to -0.49.

Compared with “HMIEYILDYLANRGVYAASQGEQQQMEDGIARYLQENGLEDGNTGAYYQKYVSNHLQQISASDLKAYFLN”, “HMDGIGLRVRMIREGVGLTQKQLAEHLGMQRTALVQVEAGSRKLSASELIGVARFFNITVEQFLDPEK” is lower in “soluble fraction (log2)” value: -0.529 for the first, -3.37 for the second.

First: HMPASVEYIRLAAEQMTGQQVTIIEQPGNYAFILRIHLNDIYSLDLAALRARIDELKPAHLTYTVEQYD
Second: HMAGASQAVKAQLRLREMILAGELPGGARIAELTLVEKLGVSRTPIRAALMRLEQEGLLHRLPGGGYAVRT
The “soluble fraction (log2)” value of the first is lower: -2.71 for the first, -0.52 for the second.

“HMVDPRLRSLTPQERRILEHIAEGLTNRQIAEDMFLAEKTVKNYVTSILDKLGMDSRTQAAVYAATHPT” and “HMSVNEKVRLFRELNQWSQEEMAERMNMSVAGYAKIERGETNISLHKLKQIASVLQIDLLDLVS” are within 0.2 log units of each other in “soluble fraction (log2)” value: -0.252 for the first, -0.32 for the second.

First: HMAEDGNMTFEEYAKRWLARQVRYAPSTLESYRRMLGRVYPFIGAIPINRLRPIALENLLAELRKRT
Second: HMSDPSAQADALFNEGKTAEAFNVLLRLIEDSPEDQREDYRVRLLDLFRIAGNTPEVKAARRRLSALLM
The “soluble fraction (log2)” value of the first is lower: -0.48 for the first, -0.252 for the second.

“HMTERIRLHDDIGSWVEKHGATRSALIPVLQGIQRSYNEISEYAMQEVADRLDIHPVEVYSVVSFYSF” and “HMLPSELLAQQRIVVQPGHNLWRIARATYGRGARYTVIYQANREQIADPNRIFPGQVFALPAA” are within 0.2 log units of each other in “soluble fraction (log2)” value: -0.0419 for the first, -0.121 for the second.

Going from “HMGFAPEAAREEVAQLIGQRGRAVTVLRPSGQVEIAGRRFEATVEVGAVDAGDTIVVRGQTAFALLVEKAD” to “HMPTLNIVDGHIAASDGVRILSIHNVTGRRYATSSKLPAGIYIVVLMPAKAETPLTVKVIVEA”, the “soluble fraction (log2)” value falls from 0.0301 to -1.6.

Going from “HMTGKTTLEYLNPLLERGIPVWDYLAKASGKAKEEVQEMVSKGLVPGAEAAKAIADYMGAEFAGSMA” to “HMNKMIIELGEKLKALRTENHLRQDQVARLVNVEKSSISMYETGMRQPSYTTLVRLADVFNVTTDYLLGRK”, the “soluble fraction (log2)” value falls from 0.0316 to -2.24.

Compared with “HMIPDMSLELAMSEQTSKGDLYGDLPNDKLALMFNAISKKVPHTDDHKRKMVAIQTILESRAS”, “HMDVQPTTTKTMFYTVQQGETLFSISRKFGISVEEITKKNPLASSGLTVGMELLLPEKKEINSTIQS” is higher in “soluble fraction (log2)” value: -0.251 for the first, 0.265 for the second.

“HMSEPFDMAVPLTSGGRRLDQVLAELLPQHSRNRLQGWIRDGLLTLDGVTVTEPKRKLAGGEQLALLLP” and “HMNSNISYSEFLSQVEKGTINSVEITGNSIKGIYADGGEFITFSPGDPGLIDKLQRSDIEILATPPA” are within 0.2 log units of each other in “soluble fraction (log2)” value: -0.13 for the first, -0.104 for the second.

“HMTEKIVFNIDGQTGRIDKILADFMTGTSRSQIQAWVKDGNLMVNDKAVKSNYKVQDGDLLELTIPEPEQ” and “HMLYGRRFQVEGLNLERYLRAAADSGIPLKGARRFGRTLTGVAAEEHMAALEALARQGGWLFTPLEAVGAN” are within 0.2 log units of each other in “soluble fraction (log2)” value: -0.171 for the first, -0.22 for the second.

Going from “HMEVAASEQRDNLWALARRVLSGEQYDVLYLRYVEDFSVAQIADVVGKTQTHVKVLLFRGRNNLGSRLRS” to “HMGQERAVPDVKGQSFDMAQGNISRAGLKAVVTDSVYDSYARPGTVVEQSPIPLAKIKRGGTVYLTLVA”, the “soluble fraction (log2)” value falls from 0.199 to -0.105.

First: HMDDTPLNNVIKKIAALPENITLADKSAVLSAWEAYQALSVNLKAQVSNSELLIKAYETILQLEGEDQIK
Second: HMPLITLSAEIQSEQIGQRLDQTLAELFPEYSRSRLKTWIEADLVKLNNQIVNIPREKVLGGEHVEITVDI
The “soluble fraction (log2)” value of the first is higher: 0.235 for the first, -0.611 for the second.

Compared with “HMSDTSAIEKIIDEVLSDESSQKAINDIKNGNEKVYGFLVGQVMKKSQGKANPGLVQKMLREKIAK”, “HMDGQPLSERQQEILRWVAEGLSNREIGERLNITPNTVRDHLSEVMRRLEVSNRTSAVSTAFHLGLLP” is lower in “soluble fraction (log2)” value: 0.212 for the first, -0.115 for the second.

“HMRTGLSGMIGEIGIVKQAIDPEGKVAVHGELWKARADVALAAGQTVRVVAVDGLTMTVEATDSK” and “HMKSLVDLEISIVKKDMNYFVLPKINGEPLLMERISASEYKDFQLGKLSKEDIFQKHYPDYSEENIKNGRG” are within 0.2 log units of each other in “soluble fraction (log2)” value: -0.0264 for the first, 0.145 for the second.

Compared with “HMRRTVIVTAAHAEIRERPDANAPLVFSAEQKVSLDYQETAPGGWVKVRHRDGQSGYVRTNQI”, “HMVINVKEILERIKLVKGFHTQIEIARFLGVSKGTISNWLARNSVDFPLVISKLDGVDLNWLFTGIGMPQ” is lower in “soluble fraction (log2)” value: -0.688 for the first, -3.18 for the second.

Compared with “HMKPGNFILDLLRTYGQKGTSAQNLMSSSRMFNFSENLIRVTLSRLAARGLIENFERGHYRLAE”, “HMTIQNSILDEIPNIGASRKRAILEAFGSVHRLRKASPEMISAKVEGIGPEMAQAIHDYLVKHPAT” is higher in “soluble fraction (log2)” value: -0.333 for the first, 0.19 for the second.

Going from “HMDIYLDEVNRKILHLLSQGIKTRSLREYINLSMSAIEKRKKHMKELFLVEDGKDETLLNEARNKGF” to “HMGVMTGAEFVGNTVASVERNLIIDTLKHTMGNRTTAANILGISIRTLRNKLKQYQNEGFDIPE”, the “soluble fraction (log2)” value rises from -1.43 to -0.703.

First: HMQNEQIAFSKFLQEVDSGRVVQVEIQGNNIKGILSDGSKFYTYSPNYPELVGKLSEKGVNIVASPVE
Second: HMRPTYRTRLEVLINNPAISGRDLDFAQSLLSYYERKGRLSAGRVKWVTTLEERYSPENLAASAAK
The “soluble fraction (log2)” value of the first is higher: 0.0802 for the first, -0.828 for the second.

Going from “HMDPERVVGQTGIVHLRIPARQHNTGKVMIEVQGSLREFDAVSEAEEIPTGTPILIVGRTEEGVFIAQPF” to “HMNTLTKEDIQKAIDVIPIDFKSVVILNLVEGFSYKETAEILEIPIGTVMSRLHRGRKILQKLLWEYSSSK”, the “soluble fraction (log2)” value falls from -0.0467 to -1.32.

Going from “HMSVPSLVGKTDSEAQSAIKSAGLKVGTVTYQYSDETEKGYVVSQSPYSGNKVNAGSTVNIVVSKGK” to “HMDRDMGSMTDFENVRDAYLTGKVWNVGDLIEANGITGIIIRKGTNYVSYNDGDGKVHKAWLHDITL”, the “soluble fraction (log2)” value falls from -0.0367 to -0.886.

With “HMPALATKDSVLDGRAEVVSYVRDTSVFYLRVRVPQKQGYRSRRIDGVSTLPEAITKALDTYMDLGT” the “soluble fraction (log2)” value was -2.57.
